In patent publication US12728086B2, “Sunscreens derived from kynurenines and other UV-absorbing oxidized amino acids bound to peptides or polymers” (The Trustees of Princeton University, priority 2021, dated 2026):
Values joined by “and” are separate entries in the source; they are usually repeats but may differ in a detail not shown here. Equal entries are not always repeated.

Experiment: UV-visible spectroscopy of oxidized or kynurenine-modified amino acids, peptides, proteins and polymers
Type: physicochemical
Protocol: A prototype of oxidized amino acid-bearing peptides from enzymatic hydrolysate of pea protein was made. […] More particularly, peptides derived from enzymatic hydrolysis of pea protein (Sigma, 16974) were oxidized in 50 mM sodium phosphate buffer at room temperature using ozone bubbled through the solution (A2Z Ozone Inc., MP1000).
A prototype of kynurenine-bearing polymers was produced from enzymatic hydrolysis of soy protein generating starting peptide material. The soluble peptides were then oxidized in a semi-sealed container into which ozone was pumped.
This was done with bovine serum albumin buffer exchanged with into 50 mM sodium phosphate pH 6.5 to remove small molecule impurities.
The polymeric lysine (8.8 mg) was suspended in 200 microliters of 50 mM sodium bicarbonate pH 9.5 and treated with DL-kynurenine (Sigma 61250) (~1 mM) for 44 hours at 37° C. in the dark. […] Controls of poly-lysine with no added kynurenine and that of kynurenine without poly-lysine were run concurrently. […] Soy peptides were used similarly, though they also contain other potential nucleophilic residues besides lysine to which kynurenine monomers could be added, including cysteine and histidine. These soy peptides were generated from overnight incubation at 37° C. of soy protein powder (5 g/100 mL deionized water) using porcine pepsin (0.5 mg/mL) all brought to pH 2.0 using hydrochloric acid. After this incubation, insoluble material was removed via centrifugation, and the clarified solution was brought to pH 9.5 using sodium hydroxide. This soy peptide solution was added in two parts to one part 50 mM sodium bicarbonate pH 9.5. To 1 mL of soy peptide solution was added 0.2 mL DLkynurenine (final 1 mM), and this was incubated for 44 hours at 37° C. in the dark. To isolate peptides from free kynurenine to determine if kynurenine monomers were added by UV-visible spectroscopy, small molecules and even some small peptides were removed with size exclusion (Sephadex G-50, GE Healthcare).

[1] = after treatment with ozone, UV-visible spectroscopy
[2] = after incubation with DL-kynurenine (44 hours, 37° C., pH 9.5) and size exclusion

| Compound | region of increased absorbance [1] | region of increased absorbance [2] | wavelength of absorbance increase in the UVA [2] |
| --- | --- | --- | --- |
| N[C@@H](Cc1c[nH]c2ccccc12)C(=O)O [L-tryptophan] | 300 to 400 nm and 300-400 nm |  |  |
| NC(CC(=O)c1ccccc1NC=O)C(=O)O (centres unmarked) [N-formyl kynurenine] | 300-350 nm |  |  |
| bovine serum albumin: bovine serum albumin stirred under a stream of ozone for 8 hours | 300-350 nm |  |  |
| poly-L-lysine |  | 300-400 nm | around 360 nm |
